Experimental findings from article PMC9865026 (Pathogens, 2022) are described below.

The assay deals with A/New Caledonia/20/1999 (NC H1N1) recombinant hemagglutinin (HA) (Influenza A virus A/New …, UniProt Q6WG00, strain). Kind of assay: ELISA. Particulars: both partners purified.

B1: FI6 human IgG1 (antibody, V domains shown)
VH: QVQLVESGGGVVQPGRSLRLSCAASGFTFSTYAMHWVRQAPGKGLEWVAVISYDANYKYYADSVKGRFTISRDNSKNTLYLQMNSLRAEDTAVYYCAKDSQLRSLLYFEWLSQGYFDYWGQGTLVTVSS
VL: not shown
notes: also called native human IgG1; source: HEK-293, transfected (pTT5), purified from cell culture supernatant (MabSelect); copies: 2 + 2
B1: the binding result was “binds”.
